Columns and labels:
Assay in all cases: purified protein
Conditions in all cases: 50 °C, 1100 rpm
[1] = substrate: O=C(O)c1ccc(C(=O)OCCO)cc1
[2] = substrate: O=C(O)c1ccc(C(=O)OCCOC(=O)c2ccc(C(=O)OCCO)cc2)cc1
[3] = substrate: O=C(O)c1ccc(C(=O)OCCOC(=O)c2ccc(C(=O)OCCOC(=O)c3ccc(C(=O)O)cc3)cc2)cc1
[4] = substrate: O=C(OCCO)c1ccc(C(=O)OCCO)cc1

B1: LCCICCG (unidentified prokaryotic organism; D238C/F243I/S283C/Y127G) (protein)
chain: QSNPYQRGPNPTRSALTADGPFSVATYTVSRLSVSGFGGGVIYYPTGTSLTFGGIAMSPGYTADASSLAWLGRRLASHGFVVLVINTNSRFDGPDSRASQLSAALNYLRTSSPSAVRARLDANRLAVAGHSMGGGGTLRIAEQNPSLKAAVPLTPWHTDKTFNTSVPVLIVGAEADTVAPVSQHAIPFYQNLPSTTPKVYVELCNASHIAPNSNNAAISVYTISWMKLWVDNDTRYRQFLCNVNDPALCDFRTNNRHCQ
Km [1]: 920 ± 220 µM | kcat [1]: 0.058 ± 0.0024 s⁻¹ | Km [2]: 210 ± 91 µM | kcat [2]: 9.1 ± 2.71 s⁻¹ | Km [3]: 670 ± 610 µM | kcat [3]: 331 ± 142 s⁻¹ | Km [4]: 750 ± 270 µM | kcat [4]: 8.2 ± 1.22 s⁻¹

— paper doi:10.1101/2023.11.05.564366v1
